Assay results reported in PMC5983913 (Science Advances, 2018).
Read-outs that look alike come from different tables or passages of the source.

T1: N-terminal His-tagged LsrK (E. coli, UniProt P77432 1-530)
T1 sequence (looked up): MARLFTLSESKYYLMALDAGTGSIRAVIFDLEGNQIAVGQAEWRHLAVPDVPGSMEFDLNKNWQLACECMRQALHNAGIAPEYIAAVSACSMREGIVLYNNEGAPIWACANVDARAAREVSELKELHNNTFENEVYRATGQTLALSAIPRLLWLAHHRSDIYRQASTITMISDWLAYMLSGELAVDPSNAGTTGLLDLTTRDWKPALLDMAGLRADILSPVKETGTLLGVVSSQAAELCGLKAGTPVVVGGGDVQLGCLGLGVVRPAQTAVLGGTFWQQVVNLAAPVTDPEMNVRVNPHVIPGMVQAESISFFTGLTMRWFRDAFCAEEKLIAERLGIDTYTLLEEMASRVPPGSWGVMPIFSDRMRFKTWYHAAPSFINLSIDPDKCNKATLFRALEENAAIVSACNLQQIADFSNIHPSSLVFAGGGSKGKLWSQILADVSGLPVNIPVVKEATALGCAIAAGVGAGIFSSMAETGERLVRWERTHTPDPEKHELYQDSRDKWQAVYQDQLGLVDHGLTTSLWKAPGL


What was measured:
[1] = biological target: T1, N-terminal His-tagged LsrK; test: enzyme inhibition kinetics
[2] = biological target: T1, N-terminal His-tagged LsrK; test: enzyme inhibition kinetics; remark: listed apart in the source

Row | Ki [1] | Ki [2] | fold lower inhibition activity than WT HPr [2] | Binder
1 | 0.32 ± 0.07 µM | – | – | native HPr protein (expressed alone, intact form) (natural protein) not shown
2 | 8.4 ± 0.5 µM | – | – | phosphorylated HPr (natural protein, phosphate group at the H15-ND1 atom (phosphohistidine 15); ^15N-labelled) not shown
3 | – | 1.2 ± 0.2 µM | ~5 fold | C-terminal six-His-tagged HPr H15E (natural protein) not shown
